Assay [1] has as its target T1, SARS-CoV-2 spike protein (wild-type) on VSV pseudovirus (SARS-CoV-2), P0DTC2.
Assay [2] deals with T1, SARS-CoV-2 spike protein (wild-type) on …. This is another data set of the same source.
Assay [3] has the same target. This is another data set of the same source.
Assay [4] shares this target. This is another data set of the same source.
The target is the same in assay [5]. The source holds these as a separate data set.
Assay [6] has the same target. This is another data set of the same source.
For assay [7] the target is unchanged. This is another data set of the same source.
Assay [8] has the same target. In words: cell-based or functional assay.

Like-named read-outs stand apart in the source and are kept apart here.

B1: P043.A.00092.C12 (antibody)
heavy chain: QEELKETGGGLVQPGGSLTLSCKASGFDFSSYYMSWVRQAPGKGLEWIGVIYASKGSTDYASWVNGRFTISSDNAQNTVDLQMNSLTAADTATYYCARSKRFYTYGYAGYAYAHYYYGMDLWGPGTLVTVSS
light chain: AIQMTQSPSSLAASVGDTVTITCKASEDIGYGLNWYQQKLGIAPKLLIYGADTLESGVPSRFSGSGSETDYTLTISSVQAEDAGIYYCQQGYSTPLTFGAGTKVEIK
In assay [1], B1 yielded an IC50 (pVNT, GFP-positive infected cells) of 0.31 µg/ml and an IC90 (pVNT, GFP-positive infected cells) of 3.79 µg/ml.

B2: P043.A.00023.E05 (antibody)
heavy chain: QSLEESGGRLVTPGTPLTLTCTVSGFSLSSYAMSWVRQAPGKGLEWIGIISSSGSTYYASWAKGRFTISKTSTTVDLKITSPTTEDTATYFCARDASSRGYYYYYGMDPWGPGTLVTVSS
light chain: AIQMTQSPSSLAASVGDTVTITCKASEDIGYGLNWYQQKLGIAPKLLIYGANTLESGVPSRFSGSGSETDYTLTISSVQAEDAGIYYCQQGYSTPLTFGAGTKVEIK
In assay [1], B2 displayed an IC50 (pVNT, GFP-positive infected cells) of 3.75 µg/ml and an IC90 (pVNT, GFP-positive infected cells) of 16.6 µg/ml.

B3: P043.A.00024.C11 (protein sample ID 451) (antibody, V domains shown)
VH: QSVEESGGRLVTPGTPLTLTCTVSGFSLSSYAMSWVRQAPGKGLEWIGIISSSGTTYYASWAKGPFTISKTSTTVDLKITSPTTEDTATYFCARGGAGYGYAHYYGMDPWGPGTLVTVSS
VL: AIQMTQSPSSLAASVGDTVTITCKASEDIGYGLNWYQQKLGIAPKLLIYGANTLESGVPSRFSGSGSETDYTLTISSVQAEDAGIYYCQQGYSTPLTFGAGTKVEIK
Regarding B3, in assay [1], the IC50 (pVNT, GFP-positive infected cells) worked out at 4.74 µg/ml and the IC90 (pVNT, GFP-positive infected cells) was found to be 20.6 µg/ml. In assay [2], the IC50, pVNT (luciferase RLU, VERO 76 cells), RiboMab in HEK 293T/17 supernatant stood at 406 ng/mL and the IC90, pVNT (luciferase RLU, VERO 76 cells), RiboMab in HEK 293T/17 supernatant was determined as 3810 ng/mL.

B4: P043.A.00097.B02 (antibody)
heavy chain: QELVESGGGLVQAGESLKLSCKASGIDFSSYGISWVRQAPGKGLEWIAYIYPGFGITNYANSVKGRFTISSDNAQNTVFLQMTSLTASDTATYFCTRAYASSSGYYIHYFNLWGPGTLVTVSS
light chain: AIQMTQSPSSLAASVGDTVTITCKASEDIGYGLNWYQQKLGIAPKLLIYGANTLESGVPSRFSGSGSETDYTLTISSVQAEDAGIYYCQQAYSTPLTFGAGTKVEIK
As to B4, in assay [1], the IC50 (pVNT, GFP-positive infected cells) was found to be 7.84 µg/ml and the IC90 (pVNT, GFP-positive infected cells) was determined as 24.2 µg/ml.

B5: P043.A.00017.E04 (antibody)
heavy chain: QSVEESGGRLVTPGTPLTLTCTVSGFSLNNYAMNWVRQAPGKGLEWIGIISSSGNTYYANWAKGRFTISKTSTTVDLKITSPTTEDTATYFCARDSYPGYSPYYGMDPWGPGTLVTVSS
light chain: AIQMTQSPSSLAASVGDTVTITCKASEDIAYGLNWYQQKLGITPKLLIYGANTLESGVPSRFSGSGSETHYTLTISSVQAEDAGIYYCQQGYNTPPTFGAGTKVEIK
For B5, in assay [1], the IC50 (pVNT, GFP-positive infected cells) is 1.19 µg/ml and the IC90 (pVNT, GFP-positive infected cells) amounted to 5.35 µg/ml.

B6: 465: LC of anti-S1 antibody with a C-terminal fusion of a scFv of P043.A.00017.E07 (bispecific antibody)
heavy: QMQLVQSGTEVKKPGESLKISCKGSGYGFITYWIGWVRQMPGKGLEWMGIIYPGDSETRYSPSFQGQVTISADKSINTAYLQWSSLKASDTAIYYCAGGSGISTPMDVWGQGTTVTVASTKGPSVFPLAPSSKSTSGGTAALGCLVKDYFPEPVTVSWNSGALTSGVHTFPAVLQSSGLYSLSSVVTVPSSSLGTQTYICNVNHKPSNTKVDKRVEPKSCDKTHTCPPCPAPEAAGGPSVFLFPPKPKDTLMISRTPEVTCVVVDVSHEDPEVKFNWYVDGVEVHNAKTKPREEQYNSTYRVVSVLTVLHQDWLNGKEYKCKVSNKALPAPIEKTISKAKGQPREPQVYTLPPSREEMTKNQVSLTCLVKGFYPSDIAVEWESNGQPENNYKTTPPVLDSDGSFFLYSKLTVDKSRWQQGNVFSCSVLHEALHSHYTQKSLSLSPGK
light: not shown
In assay [3], B6 returned an IC50 (pVNT, infected cells/16 fields) of 0.21 ng/ml and an IC90 (pVNT, infected cells/16 fields) of 1.05 ng/ml.

B7: 467: LC of anti-S1 antibody with a C-terminal fusion of a scFv of P043.A.00024.C11 (bispecific antibody)
heavy: QMQLVQSGTEVKKPGESLKISCKGSGYGFITYWIGWVRQMPGKGLEWMGIIYPGDSETRYSPSFQGQVTISADKSINTAYLQWSSLKASDTAIYYCAGGSGISTPMDVWGQGTTVTVASTKGPSVFPLAPSSKSTSGGTAALGCLVKDYFPEPVTVSWNSGALTSGVHTFPAVLQSSGLYSLSSVVTVPSSSLGTQTYICNVNHKPSNTKVDKRVEPKSCDKTHTCPPCPAPEAAGGPSVFLFPPKPKDTLMISRTPEVTCVVVDVSHEDPEVKFNWYVDGVEVHNAKTKPREEQYNSTYRVVSVLTVLHQDWLNGKEYKCKVSNKALPAPIEKTISKAKGQPREPQVYTLPPSREEMTKNQVSLTCLVKGFYPSDIAVEWESNGQPENNYKTTPPVLDSDGSFFLYSKLTVDKSRWQQGNVFSCSVLHEALHSHYTQKSLSLSPGK
light: not shown
Take B7: the figures for the IC50 (pVNT, infected cells/16 fields) in assay [4] and in assay [3] were 0.4 µg/ml and 0.46 ng/ml, respectively. The IC90 (pVNT, infected cells/16 fields) in assay [4] came out at 1.19 µg/ml; in assay [3], 1.42 ng/ml.

B8: P043.A.00095.D06 (protein sample ID 470) (antibody, V domains shown)
VH: QEQLEESGGDLVKPEGSLTLTCTASGFSFSSNYWICWVRQAPGKGLEWIGCIYIGSGDTYYASWAKGRFTISKTSSTTVTLQMTSLTAADTATYFCARSYTPGSYYNMNLWGPGTLVTVSS
VL: DVVMTQTPSSVSAAVGGTVTINCQASQQISNELSWYQQKSGQPPKLLIYDASDLASGVPSRFKGSGSGTEFTLTISDLESADAATYYCQSTGGASSDGNAFGGGTEVVVK
For B8, in assay [1], the IC50 (pVNT, GFP-positive infected cells) was 0.28 µg/ml and the IC90 (pVNT, GFP-positive infected cells) worked out at 2.28 µg/ml. Also, in assay [5], the IC50 (read off the curve) was determined as 200 ng/mL. In assay [6], this molecule had an IC50, pVNT (luciferase RLU), RiboMab in mouse serum, biological replicate 1 of 53.6 ng/mL; an IC50, pVNT (luciferase RLU), RiboMab in mouse serum, biological replicate 2 of 51.8 ng/mL; an IC90, pVNT (luciferase RLU), RiboMab in mouse serum, biological replicate 1 of 310 ng/mL; an IC90, pVNT (luciferase RLU), RiboMab in mouse serum, biological replicate 2 of 284 ng/mL. In assay [7], this molecule yielded an IC50 (read off the curve), Mouse #1 of 50 ng/mL and an IC50 (read off the curve), Mouse #2 of 50 ng/mL. This molecule yielded an IC50, pVNT (luciferase RLU, VERO 76 cells), RiboMab in HEK 293T/17 supernatant in assay [2] of 189 ng/mL. Moreover, in assay [8], the IC90, pVNT (luciferase), RiboMab 470 in HEK 293T/17 supernatant came out at 449 ng/mL and the IC90, pVNT (luciferase), RiboMab 470 in mouse serum stood at 297 ng/mL.

B9: P043.A.00047.H08 (protein sample ID 447) (antibody, V domains shown)
VH: QSLEESGGDLVKPGASLTLTCTASGFSFSSDGMCWVRQAPGKGLEWIACIAAGSSGSTYYATWAQGRFTISKSSSTTVTLQMTSLTAADTATYFCAGEDYTGNNYYALWGPGTLVTVSS
VL: AIDMTQTPSPVSAVVGDTVTINCQASENIYSFLAWYQQKPGQPPKLLIYFASKLASGVPSRFKGSGSGTQFTLTISDVHSDDAAIYYCQQTGTYSDADNTFGGGTEVVVK
In assay [1], B9 yielded an IC50 (pVNT, GFP-positive infected cells) of 3.9 µg/ml and an IC90 (pVNT, GFP-positive infected cells) of 18.2 µg/ml. In assay [6], this molecule returned an IC50, pVNT (luciferase RLU), RiboMab in mouse serum, biological replicate 1 of 740 ng/mL; an IC50, pVNT (luciferase RLU), RiboMab in mouse serum, biological replicate 2 of 424 ng/mL; an IC90, pVNT (luciferase RLU), RiboMab in mouse serum, biological replicate 1 of 6390 ng/mL; an IC90, pVNT (luciferase RLU), RiboMab in mouse serum, biological replicate 2 of 4530 ng/mL. Also, in assay [2], the IC50, pVNT (luciferase RLU, VERO 76 cells), RiboMab in HEK 293T/17 supernatant was found to be 169 ng/mL and the IC90, pVNT (luciferase RLU, VERO 76 cells), RiboMab in HEK 293T/17 supernatant came to 7240 ng/mL.

(Values after US20230287088A1.)
